Measured values taken from patent US8841274B2, “Protein arginine N-methyltransferase-5 method of cancer treatment” (priority 2009, dated 2014).

What was measured:
DP-1 = molecular target: T1, DP-1 (Homo sapiens, UniProt Q14186); test: Co-immunoprecipitation of ectopic E2F-1 with DP-1 in U2OS cells; format: cell-based; conditions: expression vector transfected into U2OS cells, HA11 IP
T1 construct: endogenous in cells; host or cells: U2OS
T1 sequence (Q14186 1-410): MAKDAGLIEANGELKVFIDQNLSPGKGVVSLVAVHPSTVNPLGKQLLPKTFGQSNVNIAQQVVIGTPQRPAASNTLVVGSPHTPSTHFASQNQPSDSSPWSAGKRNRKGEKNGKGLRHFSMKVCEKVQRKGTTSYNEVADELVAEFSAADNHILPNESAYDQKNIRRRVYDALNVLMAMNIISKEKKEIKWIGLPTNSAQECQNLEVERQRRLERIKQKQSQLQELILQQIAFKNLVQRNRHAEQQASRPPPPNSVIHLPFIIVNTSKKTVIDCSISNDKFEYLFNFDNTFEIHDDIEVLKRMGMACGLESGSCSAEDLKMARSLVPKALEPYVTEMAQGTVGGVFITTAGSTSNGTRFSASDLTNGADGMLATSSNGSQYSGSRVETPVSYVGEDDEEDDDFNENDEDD
Description: To establish whether E2F-1 was able to bind to PRMT5 in cells, the interaction between ectopic wild-type E2F-1 or KKK with PRMT5 was studied. […] Either a wild-type E2F-1 expression vector or a KKK expression vector was transfected into U2OS cells, and HA11 antibody was used for immunoprecipitation (IP) followed by immunoblotting with HA11 (E2F-1), PRMT5 or DP-1 as indicated. The level of input (In) protein is indicated. […] In contrast, binding to DP-1 was equivalent for both wild-type E2F-1 and KKK. […] Further, the RGRGR motif is necessary for the interaction, which also encompasses the site of PRMT5 methylation.
Cells were either left untransfected or transfected with expression vectors as indicated. At 48 h post transfection, cells were harvested in TNN buffer (50 mM Tris-HC1 [pH 7.4], 150 mM NaCl, 5 mM EDTA, 0.5% Ipegal, 50 mM NaF, 0.2 mM sodium orthovanadate and protease inhibitor cocktail (1 mM PMSF, leupeptin [1 μg/ml], aprotinin [1 μg/m1], and pepstatin A [1 μg/ml])) and rotated at 4° C. for 30 min to 1 h. The cell lysate was then homogenised, centrifuged at 11000 rpm for 10 min to remove cell debris and the supernatant collected. All lysates were normalized for protein concentration and, where appropriate, for transfection by β-galactosidase activity. […] Enhanced chemi-luminescence (Pierce Biotechnology, Rockford, Ill.) was used to visualize antibody binding.

[1] = test system: p73-luciferase or cyclinE-luciferase; test: Reporter assay with E2F-responsive promoters; format: cell-based; conditions: U2OS cells, 48 h, equivalent protein level; compared to wild-type E2F-1; n=3
Description: To further explore the role of arginine methylation in the transcription properties of E2F-1, wild-type E2F-1 was compared with the KK and KKK mutants in a reporter-based transfection assay, using E2F-responsive promoters derived from E2F target genes. The assay was performed under conditions in which each mutant protein was expressed at an equivalent level to wild-type E2F-1 (FIG. 4aii and bii), thus ruling out any difference in activity that could be attributed to protein levels. […] FIGS. 4a and b show the transcription properties of wild-type E2F-1, KK and KKK mutants. U2OS cells were transfected with expression vectors encoding WT or mutant E2F-1 protein, together with p73-luciferase (A) or cyclinE-luciferase (B) for 48 h as indicated, and pCMV-βgal to monitor transfection efficiency. Relative luciferase activity (luciferase/βgal) is shown together with expression level of ectopic proteins; n=3. […] PRMT5 (P) or control (C) non-targeting siRNA was transfected into U2OS cells together with p73-luciferase (i) or cyclinE-luciferase (ii) for 48 h, together with pCMV-βgal to monitor transfection efficiency. Relative luciferase activity is shown together with expression level of the ectopic proteins.
Cells were transfected with expression vectors (1 μg) encoding WT or the mutant E2F-1 proteins as indicated with E2F responsive luciferase reporters, namely p73-luciferase or cyclinE-luciferase, together with pCMV-βgal to monitor transfection efficiency. Cells were harvested, lysed 48 h post-transfection and luciferase activity measured as previously described (Janson et al 2008).

With “KKK: methylation-defective E2F-1 protein containing the mutations R109K, R111K and R113K” the “binding to DP-1 in cells” value (DP-1) was “equivalent” and the “transcriptional activity (relative luciferase activity)” value [1] was “increased transcriptional activity”.
